This is an account of results in US20250320286A1 (Janssen / Centocor, published 2025).

Numbering of substitutions follows the chain as printed. In names and notes the source's numbering stands. Where only a bound is given, the exact number is not on record here.

B1: BAMB246 (human IgG1 chimera) (antibody)
heavy: not shown
light: DVVMTQTPLTLSVTIGQPASISCKSSQSLLDSNGKTYLTWLLQRPGQSPKRLIYLVSKLDSGVPDRFTGSGAGTDFTLKIIRVEAEDLGVYYCWQGTHFPYTFGGGTKLEIKRTVAAPSVFIFPPSDEQLKSGTASVVCLLNNFYPREAKVQWKVDNALQSGNSQESVTEQDSKDSTYSLSSTLTLSKADYEKHKVYACEVTHQGLSSPVTKSFNRGEC
notes: Mouse variable regions on a human IgG1 constant region; also called BAMB246 (human chimeric parent)
B2: BAMB674 (antibody, human IgG1, kappa)
heavy: not shown
light: DVVMTQSPLSLPVTLGQPASISCKSSQSLLDSRAKTYLTWLQQRPGQSPRRLIYLVSKLDSGVPDRFSGSGSGTDFTLKISRVEAEDVGVYYCWQGTHFPYTFGGGTKLEIKRTVAAPSVFIFPPSDEQLKSGTASVVCLLNNFYPREAKVQWKVDNALQSGNSQESVTEQDSKDSTYSLSSTLTLSKADYEKHKVYACEVTHQGLSSPVTKSFNRGEC
notes: Lead HFA variant, wild type human IgG1; HCDR2 N55S; also called BAMAB674; BAMB31 HFA mAb, wild type IgG1
B3: BAMB675 (antibody, human IgG1, kappa)
heavy: QVQLVQSGAEVKKPGASVKVSCKASGHVFTSYDMYWVRQAPGQGLEWIGYIDSDSGDTSYNQKFKGRVTLTVDTSTSTVYMELSSLRSEDTAVYYCAYYRYAMDYWGQGTLVTVSSASTKGPSVFPLAPSSKSTSGGTAALGCLVKDYFPEPVTVSWNSGALTSGVHTFPAVLQSSGLYSLSSVVTVPSSSLGTQTYICNVNHKPSNTKVDKKVEPKSCDKTHTCPPCPAPELLGGPSVFLFPPKPKDTLYITREPEVTCVVVDVSHEDPEVKFNWYVDGVEVHNAKTKPREEQYNSTYRVVSVLTVLHQDWLNGKEYKCKVSNKALPAPIEKTISKAKGQPREPQVYTLPPSREEMTKNQVSLTCLVKGFYPSDIAVEWESNGQPENNYKTTPPVLDSDGSFFLYSKLTVDKSRWQQGNVFSCSVMHEALHNHYTQKSLSLSPGK
light: B2 light
notes: Same V regions as BAMB674 on IgG1 with M37Y, S39T, T41E in the Fc (numbering on GenBank AEV43323); also called BAMB31 HFA mAb, +YTE IgG1
B4: BAMB701 (antibody, human IgG1, kappa)
heavy: B3 heavy
light: B2 light with L109V
B5: BAMB700 (antibody, human IgG1, kappa)
heavy: not shown
light: B2 light with G105Q
B6: BAMB631 (antibody, human IgG1, kappa, V domains shown)
VH: QVQLVQSGAEVKKPGASVKVSCKASGHVFTSYDMYWVRQAPGQSLEWMGYIDSDNGDTSYNQKFKGRVTLTVDTSTSTVYMELSSLRSEDTAVYYCAYYRYAMDYWGQGTLVTVSS
VL: DVVMTQSPLSLPVTLGQPASISCKSSQSLLDSRAKTYLTWLLQRPGQSPRRLIYLVSKLDSGVPDRFSGSGSGTDFTLKISRVEAEDVGVYYCWQGTHFPYTFGGGTKLEIKR
notes: BAMB31 HFA variant, human IgG1
B7: BAMB611 (antibody, human IgG1, kappa, V domains shown)
VH: B6 VH with S44G, L70M
VL: B6 VL with R33N, A34G, L41F, L42Q
notes: as for B6
B8: BAMB630 (antibody, human IgG1, kappa, V domains shown)
VH: B6 VH with R38K, M48I, R67K
VL: B6 VL
notes: as for B6
B9: BAMB614 (antibody, human IgG1, kappa, V domains shown)
VH: B6 VH with S44G, M48I
VL: B6 VL with L42Q
notes: as for B6
B10: BAMB623 (antibody, human IgG1, kappa, V domains shown)
VH: B6 VH with M48I, R67K, V68A, L70M
VL: B6 VL with L42Q
notes: as for B6
B11: BAMB612 (antibody, human IgG1, kappa, V domains shown)
VH: B6 VH with A40S, S44G, M48I
VL: B6 VL with L42Q
notes: as for B6
B12: BAMB613 (antibody, human IgG1, kappa, V domains shown)
VH: B6 VH with S44G, M48I, R67K
VL: B6 VL with L42Q
notes: as for B6
B13: BAMB31_1 (antibody, mouse IgG1, V domains shown)
VH: EIQLQQSGPELVKPGTSVKVSCKASGHVFTSYDMYWVKQSHGKSLEWIGYIDSDNGDTSYNQKFKGKATLTVDKSSSTAYMHLNSLTSEDSAVYYCAYYRYAMDYWGQGTSVTVSS
VL: not shown
notes: Hybridoma antibody

Chain of human Aβ1-42 peptide (human) (peptide, as listed by the source): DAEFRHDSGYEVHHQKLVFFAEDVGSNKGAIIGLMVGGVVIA

For the first assay, the target named is fibronectin. Put plainly: SPR; no binding up to 1.2 µM. The method, then:
(§1) In some instances, binding affinities and specificity of anti-Aβ 3pE mAbs were measured by SPR performed using different instruments (Biacore T200, Biacore 8K or MASS-2 (Biacore, Inc.)) and anti-human or anti-mouse immunoglobulin biosensor surfaces. Anti-human or anti-mouse immunoglobulin antibodies were covalently coupled to the surface of CM4 or CM5 sensor chips (GE Healthcare) using manufacturer instructions for amine-coupling chemistry. Antibodies of interest were captured on the anti-human or mouse immunoglobulin sensor chip to a level of 300-400 RU, followed by injection of Aβ peptides or proteins (examples: human Aβ 3pE-40(SEQ ID NO:40), Aβ 3pE-28 (SEQ ID NO:42), scrambled Aβ 3pE-28 (SEQ ID NO:44), Aβ 1-28 (SEQ ID NO:43), mouse Aβ 3pE-28 (SEQ ID NO:46), or Fibronectin) at various concentrations in HEPES Buffered Saline containing 0.005% surfactant P20 (Tween™ 20). The surface was regenerated with 2 pulses injections of 30 μL of 10 mM Gly pH1.5 at 100 μL/min. Data reported is the difference in SPR signal between the flow cell containing the captured antibody and a reference cell without captured antibody. Additional instrumental contributions to the signal were removed by subtraction of the data from the blank injection from the reference-subtracted signal. When applicable data were analyzed by fitting association and dissociation phases at all concentrations (global fit) with a 1:1 binding model using the Biaevaluation software (Biacore, Inc.). Otherwise the data was evaluated qualitatively for YES/NO binding.
(In general: In SPR one partner is held on a chip, and binding of the other changes the refractive index at the surface.)
B1: the Kd is more than 1200 nM.

Molecule B2 had a Kd of more than 1200 nM.

B3 yielded a Kd of more than 1200 nM.

The target in another assay is 4U-3pE-beta-Amyloid. Put plainly: SPR; 4U-3pE-beta-Amyloid 0.6 to 4.5 nM.
The molecule B2 had a Kd of 0.0401 nM, a koff of 0.000136 s⁻¹ and a kon of 3.39e+06 M⁻¹ s⁻¹.

B4: the Kd came out at 0.0314 nM, the koff stood at 9.47e-05 s⁻¹ and the kon is 3.01e+06 M⁻¹ s⁻¹.

On to B5, for which the Kd stood at 0.0342 nM, the koff was 9.86e-05 s⁻¹ and the kon was determined as 2.88e+06 M⁻¹ s⁻¹.

For the molecule B3, binding was characterised by a dissociation constant (Kd) of 0.0443 nM, the off-rate constant (koff) came to 0.000166 s⁻¹ and the kon was found to be 3.74e+06 M⁻¹ s⁻¹.

A further assay has as its target T1, 3pE Aβ peptide (antigen, form not stated).
T1 construct: also called the peptide
Put plainly: SPR; antigen peptide not named.
B1 had a Kd of 0.0139 nM.

In the case of B6, the Kd is 0.018 nM.

Turning to B7, the Kd was determined as 1.52 nM.

For the molecule B8, binding was characterised by a dissociation constant (Kd) of 0.0383 nM.

B9 registered a Kd of 0.016 nM.

In turn, B10 registered a Kd of 0.0183 nM.

With B11, binding was characterised by a dissociation constant (Kd) of 0.0117 nM. Against the preceding molecule, the Kd is about 1.6-fold lower.

The molecule B12 had a Kd of 0.0182 nM.

Another assay addresses fibronectin. Put plainly: SPR; KD for this target divided by KD for human Aβ 3pE-28. The protocol: as §1
For B1, the “Fold Selectivity” value is more than 95000 fold.

On to B2, for which the “Fold Selectivity” value is more than 47000 fold.

In the case of B3, the “Fold Selectivity” value is more than 46000 fold.

Another assay has as its target T1, 3pE Aβ peptide (antigen, form not …). Put plainly: SPR; antigen peptide not named; range over the HFA variants.
Regarding B7, binding was put at a Kd of 1.52 nM. This lies in the single-digit nanomolar range.

In turn, B11 gave a Kd of 0.0117 nM. Against the preceding molecule, the Kd is about 130-fold lower.

The target of the next assay is human Aβ1-42 peptide (human). Put plainly: sandwich ELISA, BAMB31_1 coated, JRF/cAβ42/26-HRPO detection. The protocol:
For the selected Aβ3pE monoclonal antibody BAMB31, the cross-reactivity with rodent Aβ3pE-40 (SEQ ID NO:45) and human Aβ1-40 (SEQ ID NO:41), Aβ1-42 (SEQ ID NO: 48), Aβ11pE-40(SEQ ID NO:49) and Aβ11pE-42 (SEQ ID NO:50) was evaluated using synthetic peptides. The combination BAMB31 +JRF/cAβ40/28-HRPO was used to investigate the cross-reactivity with Aβ1-40 (SEQ ID NO:41), Aβ11pE-40 (SEQID NO: 49) and rodent Aβ3pE-40 (SEQ ID NO:45), and the combination BAMB31+JRF/cAβ42/26-HRPO was used to investigate the cross-reactivity with Aβ1-42 (SEQ ID NO:48) and Aβ11pE-42 (SEQ ID NO:50). Concentrations up to 10,000 pg/mL were tested.
Materials and Methods: Standards were dissolved in dimethylsulphoxide (DMSO) (Sigma) at 0.1 mg/mL and stored at −80° C. For use in ELISA, peptides were further diluted in 0.1% casein in PBS down to 1 pg/mL. Ninety-six-well-plates (Maxisorb ELISA plates; NUNC) were coated overnight at 4° C. with monoclonal antibodies from BAMB31_1 at a concentration of 1.5 μg/mL in coating buffer. The next day, plates were washed and blocked with 0.1% casein in PBS for 1-4 hours at room temperature. Standards were incubated overnight at 4° C. together with HRPO-labeled secondary antibody (JRF/cAβ40/28-HRPO or JRF/cAβ42/26-HRPO). […]
On the technique in general: An ELISA detects its analyte on a solid surface through an enzyme-linked reagent.
B13: the binding result is listed as “no binding (tested: 10 ng/ml)”.

A word on the Kd: it is the concentration at which binding is half-saturated. A low value points to a tighter complex. As usually defined, the koff is a measure of how fast the partners let go of each other. Lower therefore signals slow dissociation. Usually kon stands for the rate constant with which the complex forms. Read a low kon as slower complex formation.
